Where two headings read alike, the source gives them in different places.
Tests used:
[1] = Autodigestion of the catalytic peptide (HPLC, MS); assay type: biochemical
Protocol: First, to a buffer solution (Tris-HCl, pH 6.5, final concentration: 100 mmol/l), JAL (final concentration: 0.2 mmol/l) and the fragment peptide of hMMP7 (final concentration 0.05 mmol/l) were added. […] Thereafter, the reaction solution was subjected to HPLC, and the peaks of JAL and the fragment peptide of hMMP7 were examined. HPLC was performed under the following conditions.
Next, the mechanism of autodigestion was examined using various mutants of JAL as hydrolytic peptides. To a reaction solution containing each of the mutants of JAL, a protease inhibitor (trade name: Roche cOmplete, Roche) was added to cause a reaction. One tablet of the protease inhibitor was dissolved in 1 ml of Milli-Q water, and then, 50 μl of the resultant mixture was added to the reaction solution. […] As a result, the autodigestion of all the peptides subjected to the measurement was inhibited (FIG. 16).
Autodigestion in Box B was examined.
JAL-TA9 was reacted in the same manner except that a substrate was not added to examine the autodigestion of JAL-TA9.
The influence of an inhibitor on autodigestion of JAL-TA9 was examined. […] As the protease inhibitor, the serine protease inhibitor AEBSF, which inhibited the autodigestion of JAL 12-22 C19M in the item (6) in Example 4, was used.

Aβ28-42 = Aβ28-42 (Homo sapiens, UniProt P05067); test: Hydrolysis activity against Aβ28-42; assay type: biochemical; conditions: reaction solution II; 1 day, 5 days
Aβ1-20 = Aβ1-20 (Homo sapiens, UniProt P05067); test: Hydrolysis activity against Aβ1-20
Protocol: (§2) Further, any change in activity caused by addition of human serum albumin (HSA, Wako Pure Chemical Industries, Ltd., final concentration 0.025%) also was measured.
(§3) As substrates, Aβ42 in the form of soluble powder (authentic sample, Peptide Institute Inc.) and fragment peptides thereof, namely, Aβ1-20, Aβ11-29, and soluble Aβ28-42, were used. […] In the case of MS analysis, the MS analysis was performed after applying 20 μl of the reaction solution to HPLC and collecting an aliquot of the peak.
(§4) The present experiment examined activity against Aβ-Fs in Example 7.
(§5) As substrates, the same Aβ1-20 and Aβ11-29 as used in Example 7 were used.

Aβ11-29 = Aβ11-29 (Homo sapiens, UniProt P05067); test: Hydrolysis activity against Aβ11-29; conditions: for degradation of Aβ-F (Aβ11-29): Example 15, peptide 0.2 mmol/l
Protocol: as §2, §3
As a substrate, Aβ11-29, which is a fragment peptide of Aβ42, was used. […] In the case of MS analysis, the MS analysis was performed after applying 20 μl of the reaction solution after the reaction for 6 days to HPLC and collecting an aliquot of the peak.
as §4
The reaction solution V shown in FIG. 52 was incubated at 37° C. for a predetermined time, and autodigestion of ANA-YA4 (YRMI) and cleavage of Aβ11-29 were examined.
A reaction solution VI shown in FIG. 52 was incubated at 37° C. for a predetermined time, and cleavage of Aβ1-20 and Aβ11-29 by ANA-SA5 was examined.
as §5
The present example examined autodigestion and activity against Aβ-F of JAL 12-17 (YKGSGF) and JAL 12-16 (YKGSG). […] As a substrate, the same Aβ11-29 as used in Example 7 was used. The autodigestion was examined by causing the reaction in the same manner, except that the substrate was not added.

[2] = target: soluble Aβ1-42 (Aβ42 authentic sample) (Homo sapiens, UniProt P05067); test: Hydrolysis activity against soluble Aβ1-42 (authentic sample)
Protocol: as §3
Aβ42 was used as a substrate. […] In the case of MS analysis, the MS analysis was performed after applying 20 μl of the reaction solution after the reaction for 7 days to HPLC and collecting an aliquot of the peak.

SOD1 2-38 = SOD1 2-38 (Homo sapiens, UniProt P00441); test: Hydrolysis activity against SOD1 2-38; assay type: biochemical; conditions: Example 3 (1); substrate SOD1 2-38 or SOD1 2-12
Protocol: As a control, physiological saline (0.9 w/v %) was used instead of the buffer solution. […] Also, it is considered that physiological saline is suitable for storage of JAL before use, for example.
Next, an experiment was conducted to consider an optimal pH for activity using JAL as the hydrolytic peptide and SOD1 2-38 as a substrate.
Metal ions to be added to a reaction solution were Zn^2+, Ca^2+, Co^2+, or combinations thereof. The concentrations of the metal ions in the respective reaction solutions were as follows: 10 mmol/l for Ca^2+; and 5 μmol/l for the other metal ions.
(§1) In JAL 1-22 C19M and JAL 7-22 C19M, Cys residues contained in JAL form S—S bonds during a reaction, and this makes fragment analysis difficult. On this account, JAL 1-22 and JAL 7-22 were modified so as to substitute Cys residues by Met.

SOD1 2-12 = SOD1 2-12 (Homo sapiens, UniProt P00441); test: Hydrolysis activity against SOD1 2-12; assay type: biochemical; conditions: Example 3 (1); substrate SOD1 2-38 or SOD1 2-12
Description: as §1

Aβ1-19 = Aβ1-19 (Homo sapiens, UniProt P05067); test: Hydrolysis activity against Aβ1-19; conditions: 3 or 5 days
Protocol: The present experiment was conducted to consider an optimal concentration of a hydrolytic peptide relative to a substrate, using JAL 7-22 C19M as the hydrolytic peptide and Aβ1-19 as the substrate. The measurement of activity was performed in the same manner as in the above item (1), except that the incubation time was set to 0 days, 3 days, or 5 days.

PrP 175-189 = PrP 175-189 (Homo sapiens, UniProt P04156)
[3] = reaction solution II, 1 day, 5 days
[4] = Example 15, substrate not added
[5] = Example 9, chimera 0.2 mmol/l, PBS, HSA
[6] = Example 14, peptide 0.2 mmol/l, PBS, HSA
[7] = Example 5 (1), JAL 14-18 and mutants

SOD1 2-38, sequence (P00441 2-38 limits assumed): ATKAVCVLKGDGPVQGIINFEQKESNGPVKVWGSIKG

SKGQAYRMI [ANA-TA9]
autodigestion ([1]; reaction solution I, 37° C.): autodigestion of ANA-TA9 was observed | autodigestion in presence of protease inhibitor ([1]; reaction solution IV, 6 hours): inhibited by the protease inhibitor | cleavage of Aβ-Fs (Aβ28-42): could cleave all the Aβ-Fs | cleavage of Aβ-Fs (Aβ1-20; [3]): could cleave all the Aβ-Fs | cleavage of Aβ-Fs (Aβ11-29; [3]): could cleave all the Aβ-Fs | cleavage of Aβ42 ([2]; authentic sample Aβ42, reaction solution III): could cleave Aβ42

YKGSGF [JAL 12-17]
autodigestion [1, 4]: digested themselves | degradation of Aβ-F (Aβ11-29) (Aβ11-29; PBS, HSA): degraded Aβ-F

YKGSGFR [JAL (Tob1) 12-18]
hydrolysis activity against Aβ1-20 (Aβ1-20; Example 3 (2), (6)): exhibited activity

YKGSG [JAL 12-16]
autodigestion [1, 4]: digested themselves | degradation of Aβ-F (Aβ11-29) (Aβ11-29; PBS, HSA): degraded Aβ-F

KYEGHWYPEKPYKGSGFRMIHI [JAL 1-22 C19M]
hydrolysis activity of JAL mutants (SOD1 2-38): exhibited hydrolysis activity | hydrolysis activity of JAL mutants (SOD1 2-12): exhibited hydrolysis activity | hydrolysis activity against Aβ1-19 (Aβ1-19; CH3OH or CH3CN 10%): did not exhibit activity | hydrolysis activity against Aβ1-19 (Aβ1-19; DMSO 10%): exhibited activity

EKPYKGSGFRMI
hydrolysis activity against Aβ11-29 (Aβ11-29; Example 3 (6)): exhibited activity

FVIFLDVKHFSPEDLTVK-AA-YKGSGFRMI (FVIFLDVKHFSPEDLTVKAAYKGSGFRMI) [chimera peptide]
degradation of Aβ11-29 (HPLC) (Aβ11-29; [5]): degraded Aβ11-29 | degradation of Aβ42 (HPLC) [2, 5]: degraded Aβ4211-29 from Day 1

WIDPFEVSYQIGE [Box B Tob1 8-20]
autodigestion ([1]; Example 6, HSA added, 5 days): fragments suggesting the occurrence of autodigestion were observed | cleavage sites in Aβ-Fs (MS) (Aβ1-20; Example 14): cleaved at a plurality of sites | degradation of Aβ-Fs (HPLC) (Aβ1-20; [6]): degraded Aβ-Fs | cleavage sites in Aβ-Fs (MS) (Aβ11-29; Example 14): cleaved at a plurality of sites | degradation of Aβ-Fs (HPLC) (Aβ11-29; [6]): degraded Aβ-Fs

GSGFR
hydrolysis activity against Aβ1-20 (Aβ1-20; Example 3 (2), (6)): exhibited activity | hydrolysis activity against Aβ1-20 (Aβ1-20; [7]): strong activity

APEKPYKGSGFRMIHA
hydrolysis activity against Aβ11-29 (Aβ11-29; Example 3 (6)): exhibited activity

GSGYR
hydrolysis activity against Aβ1-20 (Aβ1-20; [7]): strong activity

GSGHR
hydrolysis activity against Aβ11-29 (Aβ11-29; [7]): strong activity

YPEKPSKGQAYRCIRV [BTG3 7-22]
hydrolysis activity against PrP 175-189 (PrP 175-189): exhibited activity | hydrolysis activity against PrP 175-189 (PrP 175-189; Cu2+ further added to HSA): exhibited activity

YKGAGFR
hydrolysis activity against Aβ1-20 (Aβ1-20; Example 3 (2), (6)): exhibited activity
